Measured values published in paper PMC6333830.

Assays:
[1] = biological target: KRAS4B GTPase domain (residues 1-173, C118S), un-phosphorylated (human) (UniProt P01116)
[2] = biological target: Src-phosphorylated 15N-KRAS (residues 1-173, C118S), not separated (human) (UniProt P01116)
[3] = biological target: KRAS4B GTPase domain (residues 1-173, C118S), un-phosphorylated (human) (UniProt P01116); remark: listed apart in the source
[4] = biological target: Src-phosphorylated 15N-KRAS (residues 1-173, C118S), not separated (human) (UniProt P01116); remark: listed apart in the source

Row | Substance | acceleration of the rate of GTP hydrolysis of KRAS by the RASA1 GAP domain at a 1:3000 molar ratio, real-time NMR [1] [%] | increase of the rate of GTP hydrolysis of pKRAS by the RASA1 GAP domain at a 1:3000 molar ratio, real-time NMR [2] [%] | fold acceleration of nucleotide exchange (GDP to GTPγS) of KRAS by SOS^cat at a ratio of 1:600, real-time NMR [3] [fold] | fold acceleration of nucleotide exchange (GDP to GTPγS) of pKRAS by SOS^cat at a ratio of 1:600, real-time NMR [4] [fold]
1 | GAP domain of human RASA1 (residues 715-1074) (domain or fragment) | > 300 | < 20 |  | 
2 | catalytic domain of Son of Sevenless 1 (SOS^cat, residues 564-1049) (from UniProt Q07889 564-1049) (domain or fragment) |  |  | 17 | < 3
